Source: US20210246451, “APTAMER FOR ADAMTS5 AND USE FOR APTAMER FOR ADAMTS5” (RIBOMIC INC., published 2021)

T1: ADAMTS5 (UniProt Q9UNA0 Q9UNA0:262-622)
T1 sequence: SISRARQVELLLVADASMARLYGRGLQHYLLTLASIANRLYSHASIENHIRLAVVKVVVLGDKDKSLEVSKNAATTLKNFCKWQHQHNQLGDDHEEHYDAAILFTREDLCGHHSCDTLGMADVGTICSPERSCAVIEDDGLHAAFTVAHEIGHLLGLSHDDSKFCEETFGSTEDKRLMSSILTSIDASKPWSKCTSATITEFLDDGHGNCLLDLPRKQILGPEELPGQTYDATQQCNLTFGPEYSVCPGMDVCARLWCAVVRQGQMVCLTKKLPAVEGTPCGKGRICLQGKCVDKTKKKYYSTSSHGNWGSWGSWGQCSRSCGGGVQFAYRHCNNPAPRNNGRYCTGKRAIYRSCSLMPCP


Tests used:
ADAMTS5 [1] = biological target: T1, ADAMTS5; assay: inhibition; method 2 ELISA; 95.9% at 2 nM; settings: tags: R&D Systems
Description: The substrate cleavage efficiency of ADAMTS5 under these reaction conditions was 80-100%. The inhibition rate of the test substance was calculated using the following equation.
On the other hand, the aptamers having the sequences shown by the sequences of SEQ ID NOs: 11(34)-11(35) and SEQ ID NO: 15 were evaluated by the following method (evaluation method 2). The cleavage reaction of the substrate (aggrecan G1-IGD-G2) by ADAMTS5 was performed in the same manner as in Example 1 except the following points. The differences are that the final concentrations of ADAMTS5 and the substrate were respectively 0.2 nM and 400 nM (48 μg/mL), and that the enzyme reaction time was 30 min. […] The cleaved substrate was quantified by a sandwich ELISA method using two kinds of anti-aggrecan antibodies. […] Using this, the amount of cleaved substrate can be quantified. […] The inhibition rate of the test substance was calculated using the following equation.
The aptamers having the sequences shown in SEQ ID NOs: 28(l)-28(18) (SEQ ID NO: 28 lineage) and SEQ ID NOs: 29(1)-29(3) (SEQ ID NO: 29 lineage) were all produced by chemical synthesis. Whether these aptamers inhibit the enzyme activity of ADAMTS5 was evaluated by a method similar to that in Example 1 and Example 5. In the Table, “n.d.” means not determined. […] “n.d.” means not determined.

ADAMTS5 [2] = biological target: T1, ADAMTS5; assay: inhibition; method 2 ELISA; method 1 92.9%; settings: tags: R&D Systems
Description: The heat-treated reaction solution was electrophoresed by 7.5% SDS-PAGE and stained with SYPRO Orange (manufactured by Sigma-Aldrich). The staining was performed according to the manual of Sigma-Aldrich and detected using STORM840 manufactured by GE Healthcare. […] The amount of uncleaved substrate in each reaction solution was quantified from the band intensity and the standard curve. The substrate cleavage efficiency of ADAMTS5 under these reaction conditions was 80-100%. The inhibition rate of the test substance was calculated using the following equation.
On the other hand, the aptamers having the sequences shown by the sequences of SEQ ID NOs: 11(34)-11(35) and SEQ ID NO: 15 were evaluated by the following method (evaluation method 2). […] The cleaved substrate was quantified by a sandwich ELISA method using two kinds of anti-aggrecan antibodies. […] Using this, the amount of cleaved substrate can be quantified. […] The inhibition rate of the test substance was calculated using the following equation.
The aptamers having the sequences shown in SEQ ID NOs: 28(l)-28(18) (SEQ ID NO: 28 lineage) and SEQ ID NOs: 29(1)-29(3) (SEQ ID NO: 29 lineage) were all produced by chemical synthesis. Whether these aptamers inhibit the enzyme activity of ADAMTS5 was evaluated by a method similar to that in Example 1 and Example 5.

Row | Binder | IC50 (ADAMTS5 [1]) | IC50 (ADAMTS5 [2])
1 | CGUAGGGGCCUCCACAGCGUAAGCUUGGACUUAAACCACG (ssRNA, as SEQ 28 plus 2'-OMe at 20-22,31; 5' 40 kDa branched PEG; 3' idT) [28(18)] | 0.029 nM | –
2 | CGUAGGGGCCUCCACAGCAUUCGCUUGGACACAAACCACG (ssRNA, as SEQ 29 plus 2'-OMe at A31; 3' idT) [29(1)] | – | 0.17 nM
